For the experiment, the target named is CaMKII (human CaMKIIδ, form used for the solution kinetics not stated) (human) (UniProt Q13557).
Sequence of UniProt Q13557 (Q13557 1-478, stated change not applied): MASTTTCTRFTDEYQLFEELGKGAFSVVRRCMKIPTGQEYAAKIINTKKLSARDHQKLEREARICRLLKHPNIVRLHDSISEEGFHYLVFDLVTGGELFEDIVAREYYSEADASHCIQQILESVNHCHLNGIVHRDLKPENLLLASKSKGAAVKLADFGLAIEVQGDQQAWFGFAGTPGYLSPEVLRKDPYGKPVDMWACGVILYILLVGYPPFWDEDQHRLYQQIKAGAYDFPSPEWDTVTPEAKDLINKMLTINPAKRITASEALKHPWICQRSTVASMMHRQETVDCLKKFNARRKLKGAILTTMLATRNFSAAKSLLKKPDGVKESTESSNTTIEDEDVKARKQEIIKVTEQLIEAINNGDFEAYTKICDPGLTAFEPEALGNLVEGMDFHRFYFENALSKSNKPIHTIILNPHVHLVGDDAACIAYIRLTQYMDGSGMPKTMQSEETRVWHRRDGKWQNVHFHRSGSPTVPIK
With GFCLIPQQSINEAIR [GluA1_(S849) peptide], the Km of peptide phosphorylation, standard solution kinetics is > 1000 µM. For PGVRLLQDSVDFSLA [VimentinS83 peptide] the value was > 1000 µM. In the case of RNKLRRQHSYDTFVD [GluN2B_(S1303) peptide], the Km of peptide phosphorylation, standard solution kinetics stood at 4.6 µM. As to PLARTLSVAGLPGKK [Syntide peptide], the Km of peptide phosphorylation, standard solution kinetics was 43.5 µM.
